Assay results from US20240209095A1 (published 2024).

Molecular target: PDL1-hFc (UniProt Q9NZQ7 19-238)
Test: ELISA

Sequence of PDL1-hFc (Q9NZQ7 19-238): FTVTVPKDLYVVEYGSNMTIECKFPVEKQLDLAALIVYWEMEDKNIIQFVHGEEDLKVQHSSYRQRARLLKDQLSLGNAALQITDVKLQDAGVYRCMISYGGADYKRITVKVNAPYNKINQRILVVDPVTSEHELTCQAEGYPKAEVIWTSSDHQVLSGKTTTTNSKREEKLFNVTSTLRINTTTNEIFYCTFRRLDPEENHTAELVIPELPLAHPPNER

Kd: 0.0666 nM
B1: mouse-human chimera 3C3 MM (antibody, V domains shown)
VH: EVQLQESGPGLTKPSQTLSLTCSVTGYSITSDYWDWIRKFPGNKLEYMGYISYTGSTYYNPSLRSRISITRDTSKNQYYLQLSSVTSEDSATYYCARRGGWLSPFVYWGQGTLVTVSA
VL: DTVMSQSPSSLGVSVGERVTLTCKSRQSLLFSSNQKNSLAWYQQKPGQSPKLLIYWASTRESGVPDRFTGSGSGTDFTLTISSVKSEDLAVYYCQQYYTYPFTFGAGTSLELK
